Measured values taken from publication PMC9176245.
Values joined by “and” are separate entries in the source; they are usually repeats but may differ in a detail not shown here. Equal entries are not always repeated.

Key:
Assay in all cases: filter binding
[1] = biological target: T1, Cbf5;Nop10;Gar1;Nhp2 (Saccharomyces cerevisiae;Saccharomyces cerevisiae;Saccharomyces cerevisiae;Saccharomyces cerevisiae) (UniProt P33322+Q6Q547+P28007+P32495); settings: 20 mM HEPES-KOH pH 7.4, 150 mM NaCl, 1.5 mM MgCl2, 10% glycerol, 30°C, 10 min; nitrocellulose filtration
T1 sequence 1: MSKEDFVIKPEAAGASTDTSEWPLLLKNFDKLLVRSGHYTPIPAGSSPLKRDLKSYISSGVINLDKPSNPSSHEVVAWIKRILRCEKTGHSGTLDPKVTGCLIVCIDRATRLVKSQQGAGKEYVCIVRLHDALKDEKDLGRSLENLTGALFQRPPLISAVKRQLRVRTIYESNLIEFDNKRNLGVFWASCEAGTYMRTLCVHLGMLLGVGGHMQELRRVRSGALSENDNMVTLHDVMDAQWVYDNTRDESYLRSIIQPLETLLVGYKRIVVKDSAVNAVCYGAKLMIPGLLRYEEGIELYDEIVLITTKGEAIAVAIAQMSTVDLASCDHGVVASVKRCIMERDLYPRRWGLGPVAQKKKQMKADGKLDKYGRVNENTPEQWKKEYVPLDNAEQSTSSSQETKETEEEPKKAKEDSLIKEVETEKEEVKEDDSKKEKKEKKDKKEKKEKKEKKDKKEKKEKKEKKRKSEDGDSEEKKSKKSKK
T1 sequence 2: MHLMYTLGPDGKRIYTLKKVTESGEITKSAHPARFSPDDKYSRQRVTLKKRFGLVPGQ
T1 sequence 3: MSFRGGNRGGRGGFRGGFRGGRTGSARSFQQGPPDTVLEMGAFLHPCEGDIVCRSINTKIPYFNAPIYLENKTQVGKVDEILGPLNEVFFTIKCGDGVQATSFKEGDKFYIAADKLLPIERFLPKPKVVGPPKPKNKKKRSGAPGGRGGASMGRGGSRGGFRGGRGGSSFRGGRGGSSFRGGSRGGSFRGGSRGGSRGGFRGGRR
T1 sequence 4: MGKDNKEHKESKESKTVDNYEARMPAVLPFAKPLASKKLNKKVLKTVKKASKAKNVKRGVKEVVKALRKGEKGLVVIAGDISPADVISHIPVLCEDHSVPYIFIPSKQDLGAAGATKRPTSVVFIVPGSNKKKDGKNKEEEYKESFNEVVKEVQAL

Utp23 = biological target: T2, Utp23 (Saccharomyces cerevisiae?) (UniProt Q12339); settings: 20 mM HEPES-KOH pH 7.4, 150 mM NaCl, 1.5 mM MgCl2, 10% glycerol, 30°C, 10 min; nitrocellulose filtration
T2 sequence: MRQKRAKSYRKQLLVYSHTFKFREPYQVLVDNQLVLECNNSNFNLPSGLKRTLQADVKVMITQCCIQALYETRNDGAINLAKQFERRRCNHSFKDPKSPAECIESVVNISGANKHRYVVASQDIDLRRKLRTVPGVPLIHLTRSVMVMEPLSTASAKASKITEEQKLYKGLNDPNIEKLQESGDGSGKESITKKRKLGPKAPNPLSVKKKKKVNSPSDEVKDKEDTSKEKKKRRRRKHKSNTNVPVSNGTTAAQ

[2] = biological target: T3, Cbf5;Nop10;Gar1 (Saccharomyces cerevisiae;Saccharomyces cerevisiae;Saccharomyces cerevisiae) (UniProt P33322+Q6Q547+P28007); settings: no Nhp2; single replicate; 20 mM HEPES-KOH pH 7.4, 150 mM NaCl, 1.5 mM MgCl2, 10% glycerol, 30°C, 10 min; nitrocellulose filtration
T3 sequence 1: T1 sequence 1
T3 sequence 2: T1 sequence 2
T3 sequence 3: T1 sequence 3

[3] = biological target: T4, Nhp2 (Saccharomyces cerevisiae) (UniProt P32495); settings: Nhp2 alone, 20 mM HEPES-KOH pH 7.4, 150 mM NaCl, 1.5 mM MgCl2, 10% glycerol, 30°C, 10 min, nitrocellulose filtration
T4 sequence: T1 sequence 4

Substance | Kd [1] | Kd (Utp23) [nM] | Kd [2] [nM] | Kd ([3]; replicate 1) [nM] | Kd ([3]; replicate 2) [nM]
GGGAUUUUUUCGUGUACUGGAUUUCCAACGGGGCCUUUCCUUCUGGCUAACCUUGAGUCCUUGUGGCUCUUGGCGAACCAGGA [C2-ES6H1] | 405 nM and 560 nM | – | – | – | –
GGGCCGACUAGGGAUCGGGUGGUGUUUUUUUAAUGACCCACUCGGCACCUUACGAGAAAUCAAAGUCUUUGGGU [H25/26] | 92 nM | – | – | – | –
GGGUUAAUAGGGACGGUCGGGGGCAUCAGUAUUCAAUUGUCAGAGGUGAAAUUCUUGGAUUUAUUGAAGACUAACUACUGCGAAAGCAUUUGCCAAGGACGUUUUC [H22/23] | 84 nM | 8.8 | – | – | –
mitochondrial tRNAMet | 746 nM | < 2 | – | – | –
snR30 full-length | 0.9 nM | 17.5 | 1.2 | 116 | 212
snR81 | – | 4.7 | – | – | –
